In this assay the target is T1, ATP phosphoribosyltransferase (Escherichia coli, UniProt P60757, E271K/H232T/R250H/S288P/T252L).
T1 construct: made in house; supernatant of sonicated cells
The assay is classed as biochemical, E. coli. To be noted: comparison of hisG_WT, hisG_SDM4, hisG_SDM7. As for the experimental part: Each strain was cultured under conditions of 30° C. and 180 rpm. When the OD600 reached 0.6, ATP-PRT expression was induced with 1 mM IPTG (final concentration) and additional culture was performed for about 4 hours. The cells obtained after culturing were sonicated and centrifuged. The obtained supernatants were used for evaluation of ATP phosphoribosyltransferase activity. […] The protein in each supernatant was quantified to match the concentration, and the enzyme activity was measured after mixing the reactants according to the reaction composition shown in Table 8 below.
The activity was measured at 30° C. at a UV wavelength of 290 nm at 2 minute intervals for 30 minutes.

B1: hisG_SDM7: ATP-PRT variant containing H232T, R250H, T252L, E271K and S288P mutations (protein)
chain: MTDNTRLRIAMQKSGRLSDDSRELLARCGIKINLHTQRLIAMAENMPIDILRVRDDDIPGLVMDGVVDLGIIGENVLEEELLNRRAQGEDPRYFTLRRLDFGGCRLSLATPVDEAWDGPLSLNGKRIATSYPHLLKRYLDQKGISFKSCLLNGSVEVAPRAGLADAICDLVSTGATLEANGLREVEVIYRSKACLIQRDGEMEESKQQLIDKLLTRIQGVIQARESKYIMMTAPTERLDEVIALLPGAEHPLILPLAGDQQRVAMHMVSSKTLFWETMEKLKALGASPILVLPIEKMME
modifications: hisG_SDM7
notes: ATP-PRT variant containing H232T, R250H, T252L, E271K and S288P mutations
For the molecule B1, the “Resistance to activity inhibition by histidine” value was “best resistance”.
